The text below walks through data of patent US20190327974A1, “SYNERGISTS FOR IMPROVED PESTICIDES” (priority 2017, published 2019).

In data set [1] the test system is other serine hydrolases (e.g. α-lytic protease). Conditions: cited from earlier work.
In data set [2] the test system is CCCC(=O)Oc1ccc([N+](=O)[O-])cc1. As to the kind of experiment: Inhibition of Gly137Asp LcαE7, 4-nitrophenol butyrate hydrolysis. The format is biochemical, Lucilia cuprina. Conditions: other: Gly137Asp αE7, room temperature; pH 7.5. An excerpt: (§1) The term “carboxyethylesterase” (CBE), refers to insect carboxylesterases from the alpha and beta and non-microsomal gene clusters, as defined in Oakeshott, Claudianos, Campbell, Newcomb and Russell, “Biochemical Genetic and Genomics of Insect Esterases”, pp 309-381, Chapter 10, Volume 5, 2005, Eds. Gilbert, Iatrou, Gill, published—Elsevier which is incorporated herein by reference. The αE7 CBE is an example of an alpha esterase, and is found in the sheep blowfly, Lucilia cuprina, with homologous genes being present in other insect pests. […]
(§2) His6-tagged proteins were expressed in BL21(DE3) E. coli (Invitrogen) at 26° C. for 18 hours. […] Protein concentration was determined by measuring the absorbance at 280 nm with an extinction coefficient calculated using the Protparam online server (Gasteiger, E. et al. Protein identification and analysis tools on the ExPASy server. Proteomics Protoc. Handb. 571-607 (2005). doi:10.1385/1-59259-890-0:571).
(§3) Inhibition of wild-type αE7 and the Gly137Asp αE7 variant was determined by a competition assay between the native-substrate analogue 4-nitrophenol butyrate (Sigma) and the boronic acid compounds. Initially, the Michalis constant (KM) with 4-nitrophenol butyrate was measured for both enzymes to determine an appropriate concentration of substrate for use in the competition assays. […]

Data set [3] shares this test system. As to the kind of experiment: Inhibition of wild-type LcαE7, 4-nitrophenol butyrate hydrolysis. Conditions: other: wildtype αE7, room temperature; pH 7.5. Format: biochemical, Lucilia cuprina.
Text: as §1, §2, §3

For `OB(O)c1ccccc1` [PBA, phenylboronic acid], the “inhibition of other serine hydrolases” value in data set [1] is recorded as “micromolar to millimolar inhibition”.

As for “Lucilia cuprina αE7 carboxylesterase (LcαE7) variant Gly137Asp (Lucilia cuprina; G137D)”, in data set [2], the Km is 250 µM.

As to “Lucilia cuprina αE7 carboxylesterase (LcαE7), wild type, GenBank AAB67728.1 (Lucilia cuprina)”, the Km in data set [3] amounted to 15 µM.
